Measurements taken from the DeepSol protein solubility set.

experiment: soluble on expression in E. coli; label from the status in PepcDB or PDB records

| Sequence | soluble on expression in E. coli |
| --- | --- |
| MGSDKIHHHHHHVAKAAQRKLLLSELQLGMRVKLPLSWTNHPFLFNRVDINSLAQIEMIRGLGVPYVFLLSEVNTKSEQPSTDNKIIEVQEQPKTERDIKSATRKAMRLSQKRFLEGVNQCRNMFGKIVSDPEGAYRQSATLVEEMLSHLQEVEQPFLTLVGMDENEVSVTQHGVSVAVIAMMIGHALDLTPRELRDIALGSLLHDIGKLKVPENIRRKLSALTTNEANYLQMHPNFGYDMLNRSGLFPKEVLNIVLHHHEFIDGSGFPDGLTGNKIPIVTQIVALANDFDQHLSGQQASSPQVALGYLFKNRAAKHAESLISVLVKILGIYPPGTIVKLSDDSVAKVIMTTKEVAQPQVWACKPDGSEASLRFLSEEGVTVQKALKAEELTEGAIRTLQVDKGVSFYFSALQA | not soluble |
| MGSDKIHHHHHHVFAGFDYGSANCAMAVCEGDSVRLLPIGDSGGQYLMSVVYALDVSFITEAVCQRLPDNQARALVQKRGAELARARRMRQELDLTATDDTVFIGEAALKAYLDTPEEGFFVRSPKSFLGATGLRPEQVALFEDIVTLMMLEVKGRADALLQNPVTHAVIGRPVNFQGIGGEEANIQAQSILQIAAMRAGFTQVSFLFEPLAAAFDFESSLEADKRVLVVDVGGGTTDCSLVTMGPNKRSQTERSEDCLGHSGQRIGGNDLDIALAMECLMPHYGLGDMLSTGKPMPRQMFWQAVAINDVGAQRDFFSLSYATAIKELRKDAINPDALDRLARLRRDQQHCQLVKLAELAKIDLSGEELTQVEHPDGAHTSVAADAFGLAIAPLVQRIGELMRAAVGDESSPDLIYVTGGSSRCPQVASSIAAVYPGVEVVQGDSFGSVTAGLARRAALEFA | not soluble |
| MGSDKIHHHHHHVHACGAETAPRCVTSYPFAQMPTAQTKKEKRPPASIESRIAECYDELSEIDQRLADVILSAPGQLAMQTATELASSAQVSKATATRFFQKLGYASYDDARAIARAAQVGGSPLYLQDRGRKTAGSKLDDVIQRHLQHEVENMANTYRSLDTQVLSEVVDAIAQARRVAIIGYRHSYTVATMIRRELIQVRSDVMLLPAPGDTIGEYLADLNAKDLAIVIGLRRRVPAVGLATAALAEAGVPVVYMSDVIAGKPARLARWVIRCHTDGLMLFDSKAGMTAVVNLICSLVAERVLDRSNSHLQRVEVLHDSLRELE | not soluble |
| MGSDKIHHHHHHVLDKIELFILDMDGTFYLDDSLLPGSLEFLETLKEKNKRFVFFTNNSSLGAQDYVRKLRNMGVDVPDDAVVTSGEITAEHMLKRFGRCRIFLLGTPQLKKVFEAYGHVIDEENPDFVVLGFDKTLTYERLKKACILLRKGKFYIATHPDINCPSKEGPVPDAGSIMAAIEASTGRKPDLIAGKPNPLVVDVISEKFGVPKERMAMVGDRLYTDVKLGKNAGIVSILVLTGETTPEDLERAETKPDFVFKNLGELAKAVQ | soluble |
| MGSDKIHHHHHHVLNVNELVKTELHCHLDGSLSLGVIRQLAQMAKITIPAEDEALRKLVSVHGKVDSLMAYLKLFDFVRPLLQTATALELAAYDLVRQAASDKVIYIEVRFAPELSTDQDLTILEAVSAVLVGLNRGQEDFGVLAKLLVCGLKQTNTNQTKELFSAIADLAPKGLVGFDFAGNEADYPTEELRDIIQFTQSLGYPMTFHAGECGCVINVIQALELGIRRIGHGTALTRNPEAIQAFVNSGATLEMCLTSNLQTGAADSIEYFPYRELVEAGANITINTDNRTVSNTTLNREYQLFVEYFGTSKADFYRFNQNAIQASFASEGEKKVLLELLDQQY | not soluble |
| MGSDKIHHHHHHVLTNQTGYEYHKCTDLTAMIKDYIDNWQKNNAHFDGIYSGFMTGSKQIELFMDFLDVFYEKNTMLLVDPVMGDDGRTYGIYSAALLDGMKALSRKADVITPNLTEACLLADYDIEKVYSDTRKDVLLPIAAEISEKLRCLSGKNQDVIITGIKCRDDKSPFIYNLVTTANGTTTHRSHFFDVSFSGTGDLFASVICGSRLNGFSTEEAAERAGKFLYDSIADTMNDDTAPNDGVNFEKFLRELM | not soluble |
| MGSDKIHHHHHHVNDGSNDFELLGSPWICENPHANWTAPAAHGMFKRFKKKEIIIHSGDQIDYIYYLHKGRIKTVAQSPSGSQKILWYIEAGSIFGETPFFNRKPCDYNFFAVTDCEIYIYPMEVIMQEIIPKFPDLTLSIIKTLSRKVHILSTQVEDCVFNKPLVRVAKLIYLLHQGRILEDKRGSSSIPLTQEDIANTLGMHRVTVNQALKHLKEIQALKEHTHLIIIHDPEKLKEVMEA | not soluble |
